Results on one molecule are retold here after publication PMC4358367, “Structural basis of diverse membrane target recognitions by ankyrins” (eLife, 2014).

Where no end group is shown, it is not given here.

Assay [1] addresses T1, AnkB_repeats site 3 mutant 'LFL' (Leu366, Phe399 and Leu432 to Gln) (human, UniProt Q01484 28-873, Leu366 substituted with Gln | Phe399 substituted with Gln | Leu432 substituted …).
T1 sequence: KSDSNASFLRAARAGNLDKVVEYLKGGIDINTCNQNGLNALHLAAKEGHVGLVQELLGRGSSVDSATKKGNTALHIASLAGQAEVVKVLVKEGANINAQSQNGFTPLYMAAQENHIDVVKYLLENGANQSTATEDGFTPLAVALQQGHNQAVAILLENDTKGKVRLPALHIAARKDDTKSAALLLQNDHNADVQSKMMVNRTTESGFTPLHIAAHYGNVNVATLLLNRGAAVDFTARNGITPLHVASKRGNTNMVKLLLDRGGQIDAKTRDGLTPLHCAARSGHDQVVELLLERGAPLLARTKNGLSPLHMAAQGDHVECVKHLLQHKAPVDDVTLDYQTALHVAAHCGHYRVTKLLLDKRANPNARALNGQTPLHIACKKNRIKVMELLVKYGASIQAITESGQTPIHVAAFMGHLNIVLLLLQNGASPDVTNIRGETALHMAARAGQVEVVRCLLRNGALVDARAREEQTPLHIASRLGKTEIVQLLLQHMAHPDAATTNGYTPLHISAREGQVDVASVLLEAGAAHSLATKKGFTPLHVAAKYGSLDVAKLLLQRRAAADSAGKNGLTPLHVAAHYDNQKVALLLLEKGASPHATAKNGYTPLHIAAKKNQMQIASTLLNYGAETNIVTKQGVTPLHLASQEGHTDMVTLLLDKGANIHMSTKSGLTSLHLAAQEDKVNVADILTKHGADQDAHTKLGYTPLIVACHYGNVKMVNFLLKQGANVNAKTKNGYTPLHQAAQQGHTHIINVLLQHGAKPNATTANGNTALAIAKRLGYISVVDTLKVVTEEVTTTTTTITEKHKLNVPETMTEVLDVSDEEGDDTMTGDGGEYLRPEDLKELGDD
As to the kind of experiment: FP.

The target of assay [2] is T2, AnkB_repeats (24 ANK repeats of human 220 kDa ankyrin-B, residues 28–873) (human, UniProt Q01484 28-873).
T2 construct: ankyrin-B (AnkB), human, 220 kDa isoform used as template, ANK repeats, residues 28-873; source: E. coli BL21 (DE3), purified
T2 sequence (looked up): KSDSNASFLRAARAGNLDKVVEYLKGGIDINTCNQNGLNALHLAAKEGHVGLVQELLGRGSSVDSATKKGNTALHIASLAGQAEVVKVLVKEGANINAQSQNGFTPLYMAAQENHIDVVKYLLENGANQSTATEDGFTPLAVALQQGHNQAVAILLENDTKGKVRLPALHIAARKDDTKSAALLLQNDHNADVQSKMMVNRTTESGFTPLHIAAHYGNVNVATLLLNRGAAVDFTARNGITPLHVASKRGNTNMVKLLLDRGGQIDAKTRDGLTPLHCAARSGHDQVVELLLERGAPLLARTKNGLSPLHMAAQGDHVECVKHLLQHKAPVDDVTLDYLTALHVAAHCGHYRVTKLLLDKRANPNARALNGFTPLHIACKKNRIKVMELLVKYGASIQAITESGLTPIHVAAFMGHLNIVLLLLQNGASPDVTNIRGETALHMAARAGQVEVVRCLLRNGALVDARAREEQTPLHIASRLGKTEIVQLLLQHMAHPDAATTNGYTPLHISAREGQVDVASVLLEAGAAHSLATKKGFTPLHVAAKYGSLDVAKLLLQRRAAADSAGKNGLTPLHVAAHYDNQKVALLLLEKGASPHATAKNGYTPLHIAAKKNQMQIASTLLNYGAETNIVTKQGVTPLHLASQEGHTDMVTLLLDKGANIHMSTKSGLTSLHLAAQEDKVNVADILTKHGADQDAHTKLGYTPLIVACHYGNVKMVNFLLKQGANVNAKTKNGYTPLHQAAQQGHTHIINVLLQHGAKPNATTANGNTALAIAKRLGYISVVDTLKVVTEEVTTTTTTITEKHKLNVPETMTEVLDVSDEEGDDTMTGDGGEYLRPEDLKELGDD
As to the kind of experiment: fluorescence polarisation; FITC-labeled peptide (~1 µM) titrated with AnkB_repeats WT or mutants; 25°C; 50 mM Tris pH 8.0, 100 mM NaCl, 1 mM DTT, 1 mM EDTA; one-site binding model. As to conditions: both partners purified. On the technique in general: Polarisation of emitted light reports the rotation of a fluorescent probe.

B1: Cav1.3 peptide (mouse Cav1.3 residues 2134–2166), FITC-labeled (peptide, UniProt Q99246-4 2134-2166, looked up)
peptide: ELQDFGPGYSDEEPDPGREEEDLADEMICITTL
modifications: also: FITC label (position not given here)
notes: voltage-gated calcium channel Cav1.3, mouse, residues 2134-2166; also called voltage-gated calcium channel Cav1.3 peptide; source: synthetic peptide (commercially synthesized)
As to B1, the Kd (as a rule, the free concentration of one partner at which half of the binding sites on the other are occupied at equilibrium, for simple one-to-one binding) in assay [1] is 4 µM. In assay [2], the binding result was “binds”.
